In paper PMC12342048:

Biological target: mammalian cell-expressed human COMP (Cartilage Oligomeric Matrix Protein) (human) (UniProt P49747)
Sequence (P49747 21-757): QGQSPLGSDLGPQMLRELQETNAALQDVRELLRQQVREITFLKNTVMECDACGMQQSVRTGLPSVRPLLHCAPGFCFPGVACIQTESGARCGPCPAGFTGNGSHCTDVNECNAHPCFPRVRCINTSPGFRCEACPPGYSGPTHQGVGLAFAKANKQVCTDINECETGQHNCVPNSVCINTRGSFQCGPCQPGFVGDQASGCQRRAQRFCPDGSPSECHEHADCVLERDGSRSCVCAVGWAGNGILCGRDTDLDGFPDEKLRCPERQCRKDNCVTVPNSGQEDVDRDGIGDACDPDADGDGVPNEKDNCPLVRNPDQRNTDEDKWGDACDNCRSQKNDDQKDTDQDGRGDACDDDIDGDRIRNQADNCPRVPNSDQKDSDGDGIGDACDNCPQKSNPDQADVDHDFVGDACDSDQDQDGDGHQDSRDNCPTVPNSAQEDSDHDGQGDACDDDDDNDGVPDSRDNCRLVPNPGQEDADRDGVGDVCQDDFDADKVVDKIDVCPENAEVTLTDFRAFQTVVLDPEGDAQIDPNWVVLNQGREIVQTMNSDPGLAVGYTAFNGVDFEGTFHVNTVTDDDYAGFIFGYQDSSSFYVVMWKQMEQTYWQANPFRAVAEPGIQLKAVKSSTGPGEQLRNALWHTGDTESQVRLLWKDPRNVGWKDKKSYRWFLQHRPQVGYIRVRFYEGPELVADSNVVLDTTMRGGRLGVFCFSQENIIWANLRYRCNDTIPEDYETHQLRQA

ADAMTS4 variant β3-β4; β9-β10 (both loops replaced with those of ADAMTS13), sequence (O75173 52-837, change not shown): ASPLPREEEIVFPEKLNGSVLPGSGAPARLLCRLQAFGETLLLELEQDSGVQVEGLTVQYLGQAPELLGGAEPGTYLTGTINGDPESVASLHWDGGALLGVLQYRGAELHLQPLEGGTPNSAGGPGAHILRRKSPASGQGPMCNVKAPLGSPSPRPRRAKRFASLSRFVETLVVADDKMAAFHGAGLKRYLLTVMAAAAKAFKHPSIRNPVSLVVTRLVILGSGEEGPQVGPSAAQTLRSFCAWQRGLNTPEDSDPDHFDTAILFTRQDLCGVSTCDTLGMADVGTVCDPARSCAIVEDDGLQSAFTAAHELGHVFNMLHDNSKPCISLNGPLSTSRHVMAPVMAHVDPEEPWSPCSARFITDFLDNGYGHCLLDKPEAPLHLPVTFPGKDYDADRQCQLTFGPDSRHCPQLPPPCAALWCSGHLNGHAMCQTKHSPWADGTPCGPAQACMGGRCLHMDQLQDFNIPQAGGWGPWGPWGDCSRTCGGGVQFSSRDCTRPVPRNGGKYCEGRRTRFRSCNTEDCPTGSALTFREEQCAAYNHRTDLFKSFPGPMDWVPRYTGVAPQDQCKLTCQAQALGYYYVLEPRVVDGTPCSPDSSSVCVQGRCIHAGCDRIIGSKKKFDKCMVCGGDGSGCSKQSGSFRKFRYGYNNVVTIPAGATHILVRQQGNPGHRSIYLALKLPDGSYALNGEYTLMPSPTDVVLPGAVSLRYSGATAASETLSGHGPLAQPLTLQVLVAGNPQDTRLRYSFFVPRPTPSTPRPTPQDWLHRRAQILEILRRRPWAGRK
ADAMTS4 variant β1-β2 (residues 693–698 swapped with those of ADAMTS13), sequence (O75173 52-837, change not shown): as above

Row | Substance | reduction in COMPase activity at the S77-V78 bond compared to WT ADAMTS4 (hCOMP 520 nM, enzyme 12 nM, 2 h, 37 °C; densitometry of anti-QQS77 immunoblot, WT set as 100 %)
1 | ADAMTS4 variant β3-β4; β9-β10 (both loops replaced with those of ADAMTS13) (from UniProt O75173 52-837) (enzyme) | 20 % reduction
2 | ADAMTS4 variant β1-β2 (residues 693–698 swapped with those of ADAMTS13) (from UniProt O75173 52-837) (enzyme) | 25 % reduction
